This is an account of results in article PMC4725768.

The target in test [1] is full-length FGFR3 (human FGFR3 IIIc) fused to YFP or mCherry (human) (UniProt P22607).
Test [2] deals with EC+TM (A374I-G375I-S378I) FGFR3 mutant (human).
Test [3] addresses EC+TM (L377I-G380I-A391I) FGFR3 mutant (human).
For test [4], the target named is A391E EC+TM FGFR3 construct (human).
Test [5] deals with FGFR1 EC+TM-(GGS)5-YFP / FGFR1 EC+TM-(GGS)5-mCherry (human).
For test [6], the target named is FGFR3 EC+TM-(GGS)5-YFP / FGFR3 EC+TM-(GGS)5-mCherry (human).

Sequence of UniProt P22607 (P22607 23-806): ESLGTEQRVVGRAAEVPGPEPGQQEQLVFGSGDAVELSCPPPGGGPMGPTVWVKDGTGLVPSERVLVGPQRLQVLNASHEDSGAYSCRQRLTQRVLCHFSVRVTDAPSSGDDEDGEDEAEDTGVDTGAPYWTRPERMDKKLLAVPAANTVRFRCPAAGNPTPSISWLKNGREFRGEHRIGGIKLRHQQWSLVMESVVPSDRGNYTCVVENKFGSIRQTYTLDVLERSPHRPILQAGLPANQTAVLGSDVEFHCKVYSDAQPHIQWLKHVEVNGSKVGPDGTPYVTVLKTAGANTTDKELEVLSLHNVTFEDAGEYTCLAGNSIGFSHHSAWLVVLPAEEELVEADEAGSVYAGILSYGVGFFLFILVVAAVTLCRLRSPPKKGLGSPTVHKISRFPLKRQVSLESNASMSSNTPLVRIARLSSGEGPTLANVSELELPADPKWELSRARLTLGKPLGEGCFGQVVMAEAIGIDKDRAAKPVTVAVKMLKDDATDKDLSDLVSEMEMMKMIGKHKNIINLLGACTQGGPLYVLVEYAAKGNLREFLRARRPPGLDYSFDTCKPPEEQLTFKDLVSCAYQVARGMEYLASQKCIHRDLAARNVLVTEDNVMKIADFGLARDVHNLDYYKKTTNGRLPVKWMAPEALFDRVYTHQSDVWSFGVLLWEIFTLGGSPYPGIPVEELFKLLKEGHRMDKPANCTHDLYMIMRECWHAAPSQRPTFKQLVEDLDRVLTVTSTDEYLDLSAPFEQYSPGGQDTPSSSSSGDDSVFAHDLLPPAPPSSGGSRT

In test [1], “human fgf1 (from UniProt P05230 16-155) (ligand)” had a fold increase of full-length FGFR3 phosphorylation (western blot, anti-phospho-Tyr) at saturating fgf1 over no ligand of 1.5 to 3 fold. Moreover, the intrinsic FRET of the EC+TM FGFR3 A374I-G375I-S378I dimer (QI-FRET in vesicles) at saturating fgf1 in test [2] was found to be 0.63. Moreover, in test [3], the intrinsic FRET of the EC+TM FGFR3 L377I-G380I-A391I dimer (QI-FRET in vesicles) at saturating fgf1 is 0.52. The substance further registered an intrinsic FRET of the EC+TM FGFR3 A391E dimer (QI-FRET in vesicles) at saturating fgf1 in test [4] of 0.75. This substance also gave an intrinsic FRET of the EC+TM FGFR1 dimer (QI-FRET in vesicles) at saturating fgf1 (5 μg ml^−1) in test [5] of 0.55. The substance also showed an intrinsic FRET of the EC+TM FGFR3 dimer (QI-FRET in vesicles) at saturating fgf1 (5 μg ml^−1) in test [6] of 0.55.
“human fgf2 (from UniProt P09038 143-288) (ligand)” came in with a fold increase of full-length FGFR3 phosphorylation (western blot, anti-phospho-Tyr) at saturating fgf2 over no ligand in test [1] of 2 to 4 fold. In addition, in test [2], the intrinsic FRET of the EC+TM FGFR3 A374I-G375I-S378I dimer (QI-FRET in vesicles) at saturating fgf2 amounted to 0.74. For the same substance, the intrinsic FRET of the EC+TM FGFR3 L377I-G380I-A391I dimer (QI-FRET in vesicles) at saturating fgf2 in test [3] was determined as 0.53. The intrinsic FRET of the EC+TM FGFR3 A391E dimer (QI-FRET in vesicles) at saturating fgf2 in test [4] came out at 0.78. This substance also yielded an intrinsic FRET of the EC+TM FGFR1 dimer (QI-FRET in vesicles) at saturating fgf2 (5 μg ml^−1) in test [5] of 0.73. The intrinsic FRET of the EC+TM FGFR3 dimer (QI-FRET in vesicles) at saturating fgf2 (5 μg ml^−1) in test [6] turned out to be 0.72.
